Target: ELOBC heterodimer (UniProt Q15370;Q15369)
Assay: SEC-MALS

Sequence of ELOBC heterodimer (Q15370 whole entry, chain 1 of 2): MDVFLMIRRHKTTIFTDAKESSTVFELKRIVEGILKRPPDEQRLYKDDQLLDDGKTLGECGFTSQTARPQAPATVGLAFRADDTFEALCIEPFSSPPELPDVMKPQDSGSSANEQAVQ
Sequence of ELOBC heterodimer (Q15369 whole entry, chain 2 of 2): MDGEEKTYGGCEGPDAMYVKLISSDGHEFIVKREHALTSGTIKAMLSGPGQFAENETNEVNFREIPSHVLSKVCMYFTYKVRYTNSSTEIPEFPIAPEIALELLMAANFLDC

B1: Strep-Vif (HIV-1 Vif, wild type) (natural protein)
chain: not shown
- binding result: binds

Reference: PMC3582769 (Molecular cell, 2013)
